Measurements published in patent publication US20230265179A1 (TWIST BIOSCIENCE, published 2023).
Where a chain is given by its changes, count along the chain named. Each block holds one binder with its values, some of them ahead of it.

Columns and labels:
[1] = target: T1, IL1RL2 over-expressed on Expi293 cells (UniProt Q9HB29 20-575, limits assumed); assay: flow cytometry, over-expressing Expi293 vs parent cells, 100 nM antibody;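 further: ratio is mean fluorescence intensity on over-expressing Expi293 cells divided by that measured on parental Expi293 cells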
T1 construct: whole, on cells; Target of the flow cytometry assay; MFI ratio is over-expressing cells over parent cells
T1 sequence (looked up): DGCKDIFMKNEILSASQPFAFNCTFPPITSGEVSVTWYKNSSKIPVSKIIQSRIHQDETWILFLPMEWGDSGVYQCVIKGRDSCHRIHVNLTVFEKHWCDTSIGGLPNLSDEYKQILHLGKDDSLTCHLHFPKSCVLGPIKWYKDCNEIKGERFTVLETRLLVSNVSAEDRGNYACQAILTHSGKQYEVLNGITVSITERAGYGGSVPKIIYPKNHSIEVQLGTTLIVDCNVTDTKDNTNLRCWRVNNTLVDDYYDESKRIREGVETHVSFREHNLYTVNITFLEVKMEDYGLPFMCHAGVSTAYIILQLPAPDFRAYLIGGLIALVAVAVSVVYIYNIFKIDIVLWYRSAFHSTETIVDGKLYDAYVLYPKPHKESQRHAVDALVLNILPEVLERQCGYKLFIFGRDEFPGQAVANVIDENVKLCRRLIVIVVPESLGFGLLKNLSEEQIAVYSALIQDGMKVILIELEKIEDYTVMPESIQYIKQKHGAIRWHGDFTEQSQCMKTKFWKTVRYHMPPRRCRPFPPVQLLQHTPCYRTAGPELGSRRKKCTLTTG
Protocol: (§1) All incubations and washes were in buffer containing PBS+1% BSA. MFI Ratio is defined by the mean fluorescence intensity (MFI) of the cytokine over-expressing Expi293 cell over the Expi293 parent cell. […] EC50 was calculated in GraphPad Prism.

CD40L = target: T2, CD40L (UniProt P29965 1-261, limits assumed); assay: flow cytometry, 100 nM IgG, CD40L over-expressing Expi293 cells over parent Expi293 cells
T2 construct: whole, on cells; also called cytokine over-expressing Expi293 cells (CD40L)
T2 sequence (looked up): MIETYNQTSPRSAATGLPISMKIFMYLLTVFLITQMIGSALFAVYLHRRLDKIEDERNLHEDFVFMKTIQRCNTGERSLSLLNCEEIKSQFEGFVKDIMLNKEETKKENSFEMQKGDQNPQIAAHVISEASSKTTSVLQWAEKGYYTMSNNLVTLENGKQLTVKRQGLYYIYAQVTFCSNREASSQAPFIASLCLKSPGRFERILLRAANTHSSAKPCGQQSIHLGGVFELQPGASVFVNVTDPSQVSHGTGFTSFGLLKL
Protocol: as §1

100 nM FACS (MFI Ratio) [1]: 11.7
B1: IL1RL2-292 (antibody, V domains shown)
VH: EVQLLESGGGLVQPGGSLRLSCAASGLTFNNYAMSWVRQAPGKGLEWVSGISGSSGNTYYVDSVKGRFTISRDNSKNTLYLQMNSLRAEDTAVYYCARGPNHGMFDAWGQGTLVTVSS
VL: DIQMTQSPSSLSASVGDRVTITCRASQSIGYYLNWYQQKPGKAPKLLIYSATSLQSGVPSRFSGSGSGTDFTLTISSLQPEDFATYYCQHRGTFGGGTKVEIK
notes: IgG2

100 nM FACS (MFI Ratio) [1]: 205
B2: IL1RL2-185 (antibody, V domains shown)
VH: EVQLLESGGGLVQPGGSLRLSCAASGFTFDKYLMSWVRQAPGKGLEWVSAISGRGDNTYYADSVKGRFTISRDNSKNTLYLQMNSLRAEDTAVYYCARGGDTYFDYFDYWGQGTLVTVSS
VL: DIQMTQSPSSLSASVGDRVTITCRASQSIRRFLNWYQQKPGKAPKLLIYQASSLQSGVPSRFSGSGSGTDFTLTISSLQPEDFATYYCQQSHSSPLTFGQGTKVEIK
notes: IgG2

100 nM FACS (MFI Ratio) [1]: 11.7
B3: IL1RL2-301 (antibody, V domains shown)
VH: EVQLLESGGGLVQPGGSLRLSCAASGFPLSSYAMSWVRQAPGKGLEWVSLISGSGVSTYYADSVKGRFTISRDNSKNTLYLQMNSLRAEDTAVYYCARGWGAAEEWGQGTLVTVSS
VL: B2 VL with I29V, R30S, R31Y, F32Y, Q50G, S52V, S53N, S93T, S94I, L96Y
notes: IgG2

100 nM FACS (MFI Ratio) [1]: 7.44
B4: IL1RL2-297 (antibody, V domains shown)
VH: EVQLLESGGGLVQPGGSLRLSCAASGFTFRSHAMSWVRQAPGKGLEWVSALSGSGGRTYYADSVKGRFTISRDNSKNTLYLQMNSLRAEDTAVYYCASSGAGVSDYWGQGTLVTVSS
VL: B2 VL with R30D, R31T, F32N, Q50A, S53N, S56H, H92S, S94I, Q100G
notes: IgG2

100 nM FACS (MFI Ratio) [1]: 8.71
B5: IL1RL2-284 (antibody, V domains shown)
VH: EVQLLESGGGLVQPGGSLRLSCAASGFTFTSHAMSWVRQAPGKGLEWVSGISGSGANTYYADSVKGRFTISRDNSKNTLYLQMNSLRAEDTAVYYCARDGIVVVPAANHSYYYYYGMDVWGQGTLVTVSS
VL: DIQMTQSPSSLSASVGDRVTITCRASQSISVHLNWYQQKPGKAPKLLIYIASNLQSGVPSRFSGSGSGTDFTLTISSLQPEDFATYYCQQTYTTPYTFGGGTKVEIK
notes: IgG2

100 nM FACS (MFI Ratio) [1]: 10.2
B6: IL1RL2-293 (antibody, V domains shown)
VH: EVQLLESGGGLVQPGGSLRLSCAASGFTISNYAMSWVRQAPGKGLEWVSGISGSGSSTFYADSVKGRFTISRDNSKNTLYLQMNSLRAEDTAVYYCAKPDSGQWWGVDQWGQGTLVTVSS
VL: B5 VL with S30G, V31N, H32Y, L33V, I50A, Q55E, S56D, T91S, T93N, Y96L
notes: IgG2

100 nM FACS (MFI Ratio) [1]: 19.9
B7: IL1RL2-296 (antibody, V domains shown)
VH: EVQLLESGGGLVQPGGSLRLSCAASGFIFSNFAMSWVRQAPGKGLEWVSGISGSGSSTNYADSVKGRFTISRDNSKNTLYLQMNSLRAEDTAVYYCARGFWSGYYGMDVWGQGTLVTVSS
VL: B5 VL with Q27R, V31T, H32Y, I50A, N53S, L54S, T93A, Y96W
notes: IgG2

100 nM FACS (MFI Ratio) (CD40L): 6.6 MFI ratio
B8: CD40L-205 (antibody, V domains shown)
VH: EVQLLESGGGLVQPGGSLRLSCAASGFDFSDYEMSWVRQAPGKGLEWVSSITSEGGSTYYADSVKGRFTISRDNSKNTLYLQMNSLRAEDTAVYYCAKPDVLFDYWGQGTLVTVSS
VL: DIQMTQSPSSLSASVGDRVTITCSGDNLGDKYVHWYQQKPGKAPKLLIYGKNIRPSGVPSRFSGSGSGTDFTLTISSLQPEDFANYYCQQTYSIPYTFGQGTKVEIK

100 nM FACS (MFI Ratio) (CD40L): 7.3 MFI ratio
B9: CD40L-214 (antibody, V domains shown)
VH: B8 VH with D28T, S30E, Y32T, S35D
VL: DIQMTQSPSSLSASVGDRVTITCSGDNLRGYYASWYQQKPGKAPKLLIYGENSRPSGVPSRFSGSGSGTDFTLTISSLQPEDFATYYCQQSYENPLTFGQGTKVEIK

100 nM FACS (MFI Ratio) (CD40L): 11.9 MFI ratio
B10: CD40L-207 (antibody, V domains shown)
VH: B8 VH with D28T, S30E, Y32T, S35D, V101K, L102D
VL: DIQMTQSPSSLSASVGDRVTITCRASQRISSFLNWYQQKPGKAPKLLIYDASNLQSGVPSRFSGSGSGTDFTLTISSLQPEDFATYYCQPSFYFPYAFGQGTKVEIK

100 nM FACS (MFI Ratio) (CD40L): 1.6 MFI ratio
B11: CD40L-208 (antibody, V domains shown)
VH: B8 VH with D28T, S30A, D31S, S35T, V101K, L102D
VL: DIQMTQSPSSLSASVGDRVTITCRASQTIGDYLNWYQQKPGKAPKLLIYLGSELQSGVPSRFSGSGSGTDFTLTINSLQPEDFATYYCQTWDTGESGVFGQGTKVEIK

100 nM FACS (MFI Ratio) [1]: 5.31
B12: IL1RL2-289 (antibody, V domains shown)
VH: EVQLLESGGGLVQPGGSLRLSCAASGFTFTKYAMSWVRQAPGKGLEWVSGISGSGGYTYYADSVKGRFTISRDNSKNTLYLQMNSLRAEDTAVYYCARGAGSPDYWGQGTLVTVSS
VL: DIQMTQSPSSLSASVGDRVTITCRASQNIRSYLNWYQQKPGKAPKLLIYATSNLQRGVPSRFSGSGSGTDFTLTISSLQPEDFATYYCQQSYRAPYIFGGGTKVEIK
notes: IgG2

100 nM FACS (MFI Ratio) (CD40L): 12.1 MFI ratio
B13: CD40L-211 (antibody, V domains shown)
VH: EVQLLESGGGLVQPGGSLRLSCAASGGYNFRDYMHWVRQAPGKGLEWVAEIRNKANNHATKYADSVKGRFTISRDNSKNTLYLQMNSLRAEDTAVYYCAKNLGQGFDYWGQGTLVTVSS
VL: DIQMTQSPSSLSASVGDRVTITCRASQTIGDYLNWYQQKPGKAPKLLIYETSKLASGVPSRFSGSGSGTDFTLTISSLQPEDFATYYCQQSYSTPTFGQGTKVEIK

100 nM FACS (MFI Ratio) [1]: 3.98
B14: IL1RL2-283 (antibody, V domains shown)
VH: EVQLLESGGGLVQPGGSLRLSCAASGFAFRSYAMSWVRQAPGKGLEWVSAITGSGTSTYYADSVKGRFTISRDNSKNTLYLQMNSLRAEDTAVYYCARDILWNYRVADYWGQGTLVTVSS
VL: DIQMTQSPSSLSASVGDRVTITCRASLSISRYLNWYQQKPGKAPKLLIYTASSLHSGVPSRFSGSGSGTDFTLTISSLQPEDFATYYCQQSYRTPPWTFGGGTKVEIK
notes: IgG2

100 nM FACS (MFI Ratio) [1]: 8.4
B15: IL1RL2-290 (antibody, V domains shown)
VH: B14 VH with R105H
VL: B14 VL
notes: IgG2

100 nM FACS (MFI Ratio) (CD40L): 2.2 MFI ratio
B16: CD40L-210 (antibody, V domains shown)
VH: EVQLLESGGGLVQPGGSLRLSCAASGGYNFRDYMHWVRQAPGKGLEWVATISGGGINTYYPDSVKGRFTISRDNSKNTLYLQMNSLRAEDTAVYYCAKDLGQGFDYWGQGTLVTVSS
VL: DIQMTQSPSSLSASVGDRVTITCSGDKLGDKYTSWYQQKPGKVPKLLIYQNDKRPSGVPSRFSGSGSGTDFTLTISSLQPEDFATYYCQQNNNWPTTFGQGTKVEIK

100 nM FACS (MFI Ratio) [1]: 3.07
B17: IL1RL2-295 (antibody, V domains shown)
VH: EVQLLESGGGLVQPGGSLRLSCAASGFSFTTYAMSWVRQAPGKGLEWVSGISGGGGSTYYADSVKGRFTISRDNSKNTLYLQMNSLRAEDTAVYYCAKLVLSNRGGVDYWGQGTLVTVSS
VL: DIQMTQSPSSLSASVGDRVTITCRASQSIRSHLNWYQQKPGKAPKLLIYRASTLQTGVPSRFSGSGSGTDFTLTISSLQPEDFATYYCQQSYSILPVTFGGGTKVEIK
notes: IgG2
